# Laboratory results reported in patent US20250361322A1 (ICONIC THERAPEUTICS, published 2025).
# Read-outs that look alike come from different tables or passages of the source.
# B1: 25G9 (antibody, V domains shown)
# VH: QVQLVQSGAEVKKPGASVKVSCKASGYTFRSYGISWVRQAPGQGLEWMGWVAPYSGNTNYAQKLQGRVTMTTDTSTSTAYMELRSLRSDDTAVYYCARDAGTYSPYGYGMDVWGQGTTVTVSS
# VL: DIQMTQSPSTLSASVGDRVTITCQASQSIDSWLAWYQQKPGKAPKLLIYSASYLESGVPSRFSGSGSGTEFTLTISSLQPDDFATYYCQRFQSLPPFTFGGGTKVEIK
# notes: Human IgG (captured by anti-human IgG in the Biacore assay); also called antibody designated 25G9
# B2: 39A (antibody, human IgG1, V domains shown)
# VH: QVQLVQSGAEVKKPGSSVKVSCKASGGTFSSNAIGWVRQAPGQGLEWMGSIIPIIGFANYAQKFQGRVTITADESTSTAYMELSSLRSEDTAVYYCARDSGYYYGASSFGMDVWGQGTTVTVSS
# VL: EIVMTQSPATLSVSPGERATLSCRASQSVSSNLAWYQQKPGQAPRLLIYGASTRATGIPARFSGSGSGTEFTLTISSLQSEDFAVYYCEQYNNLPLTFGGGTKVEIK
# notes: Human IgG1; also called antibody designated 39A
# B3: 43D8 (antibody, V domains shown)
# VH: QVQLQQWGAGLLKPSETLSLTCAVYGGSLSGYYWSWIRQPPGKGLEWIGEIGASGSTRYNPSLKSRVTISVDTSKNQFSLKLSSVTAADTAVYYCARDTPYYYEGGYYYYMDVWGKGTTVTVSS
# VL: EIVLTQSPGTLSLSPGERATLSCRASQSVSSSFLAWYQQKPGQAPRLLIYGAYSRATGIPDRFSGSGSGTDFTLTISRLEPEDFAVYYCQQAGVVPYTFGGGTKVEIK
# notes: Human IgG (captured by anti-human IgG in the Biacore assay); also called antibody designated 43D8
# What was measured:
# pig TF-His = target: T1, pig TF-His (Pig (Sus scrofa)); assay: Biacore SPR, antibody captured by anti-human IgG on CM5, pig TF-His titrated from 100 nM, 1:1 fit
# T1 construct: also called pig TF ECD-His; pTF
# T1 chain: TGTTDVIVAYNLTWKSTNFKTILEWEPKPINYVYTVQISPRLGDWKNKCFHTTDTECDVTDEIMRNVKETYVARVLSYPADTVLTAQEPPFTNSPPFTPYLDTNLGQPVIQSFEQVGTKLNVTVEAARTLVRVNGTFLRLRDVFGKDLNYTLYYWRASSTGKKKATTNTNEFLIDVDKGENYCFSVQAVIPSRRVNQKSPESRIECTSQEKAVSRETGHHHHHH
# Procedure: The ability of certain antibodies was tested for binding to pig TF. For pig TF Biacore-based measurements, a given anti-TF antibody was captured by an anti-human IgG antibody covalently coupled to a CM5 chip (GE Healthcare Bio-Sciences). Association between the anti-TF antibodies and a five-point three-fold titration of pig TF-His starting at 100 nM was measured for 180 to 240 sec. Subsequently, dissociation between the anti-TF antibody and TF-His was measured for 1800 sec. Kinetic data was analyzed and fitted globally using a 1:1 binding model.
# [1] = target: T2, full-length mouse TF with a C-terminal FLAG tag on Flp-In-CHO cells (mouse, UniProt P20352 29-294); assay: flow cytometry, antibody titration on CHO cells expressing mouse TF
# T2 construct: also called CHO-mTF; mouse TF-positive CHO cells
# [2] = target: T3, human Tissue Factor on human TF-positive cells (human, UniProt P13726 33-295); assay: flow cytometry, titration of unconjugated antibody on HCT-116 cells (human TF), 4-parameter fit of MFI
# T3 construct: also called hTF; CD142
# [3] = target: T3, human Tissue Factor on human …; assay: competition flow cytometry on MDA-MB-231 cells: unlabeled antibody titration first, then 20 nM 39A-Alexa488 as the competitor
# [4] = target: T3, human Tissue Factor on human …; assay: competition flow cytometry on MDA-MB-231 cells: antibody titration first, then 20 nM FVII-Fc-Alexa488 as the blocked ligand
# Relipidated TF [5] = target: T4, Relipidated TF (UniProt P13726 33-295, limits assumed); assay: cell-based or functional assay
# [6] = target: T5, cynomolgus monkey TF ECD-His6 (cynomolgus monkey (Macaca fascicularis)); assay: BLI (ForteBio Octet)
# T5 construct: Expi293-derived; also called TF-His; cTF
# T5 chain: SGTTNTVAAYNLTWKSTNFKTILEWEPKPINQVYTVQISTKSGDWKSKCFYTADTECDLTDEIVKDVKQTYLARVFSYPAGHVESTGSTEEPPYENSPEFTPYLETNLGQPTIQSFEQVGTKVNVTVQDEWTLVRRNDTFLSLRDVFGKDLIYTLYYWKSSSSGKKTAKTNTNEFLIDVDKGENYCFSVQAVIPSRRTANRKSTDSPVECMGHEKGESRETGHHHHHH
# human TF ECD-His6 [7] = target: T6, human TF ECD-His6 (human, UniProt P13726 33-251); assay: BLI (ForteBio Octet)
# T6 construct: Expi293-derived; Biacore used TF-His; also called TF-His; hTF
# [8] = target: T3, human Tissue Factor on human …; assay: flow cytometry, antibody titration on A431 cells (human TF), 4-parameter fit of MFI
# Procedure: (§1) After 2 washes, dead cells were labeled with TO-PRO-3 Iodide (ThermoFisher Scientific) and samples were analyzed on a CytoFLEX flow cytometer (Beckman Coulter, Brea, CA, USA) or Novocyte flow cytometer (ACEA Biosciences, San Diego, CA, USA). The median fluorescence intensities (MFIs) at each dilution were plotted and cell EC₅₀'s were derived using a 4-parameter binding model in Prism (GraphPad, La Jolla, CA, USA).
# [9] = target: T5, cynomolgus monkey TF ECD-His6; assay: SPR (Biacore), TF-His over coupled antibody
# Procedure: (§2) Kinetic measurements for the anti-TF antibodies were conducted on an Octet QK384 (Pall ForteBio, Fremont, CA, USA) or a Biacore (GE Healthcare Bio-Sciences).
# (§3) For the Biacore-based measurements, the antibody was covalently coupled to a CM5 or C1 chip using an amine-coupling kit (GE Healthcare Bio-Sciences). Association between the anti-TF antibodies and a five-point three-fold titration of TF-His starting at 25 to 500 nM was measured for 300 sec. Subsequently, dissociation between the anti-TF antibody and TF-His was measured for up to 1800 sec. Kinetic data was analyzed and fitted globally using a 1:1 binding model.
# human TF ECD-His6 [10] = target: T6, human TF ECD-His6; assay: SPR (Biacore), TF-His over coupled antibody
# Procedure: as §2, §3
# Relipidated TF [11] = target: T4, Relipidated TF; assay: cell-based or functional assay; remark: listed apart in the source
# [12] = target: T7, rTF (rat TF) construct on HEK293 cells (rat, UniProt P42533 29-252); assay: live cell staining, HEK293 cells
# T7 construct: not shown: transmembrane/cytoplasmic anchor of the cell-surface construct
# [13] = target: T3, human Tissue Factor on human …; assay: competition flow cytometry on MDA-MB-231 cells: unlabeled antibody titration first, then 20 nM 39A-Alexa488 as the competitor; remark: listed apart in the source
# [14] = target: T3, human Tissue Factor on human …; assay: flow cytometry, antibody titration on MDA-MB-231 cells (human TF), 4-parameter fit of MFI
# Procedure: as §1
# [15] = target: T3, human Tissue Factor on human …; assay: flow cytometry, antibody titration on HCT-116 cells (endogenous human TF), 4-parameter fit of MFI
# Procedure: as §1
# [16] = target: T2, full-length mouse TF with a C-terminal …; assay: flow cytometry on CHO cells expressing mouse TF, MFI at 250 nM antibody
# Procedure: as §1
# T7 sequence (P42533 29-252 limits assumed): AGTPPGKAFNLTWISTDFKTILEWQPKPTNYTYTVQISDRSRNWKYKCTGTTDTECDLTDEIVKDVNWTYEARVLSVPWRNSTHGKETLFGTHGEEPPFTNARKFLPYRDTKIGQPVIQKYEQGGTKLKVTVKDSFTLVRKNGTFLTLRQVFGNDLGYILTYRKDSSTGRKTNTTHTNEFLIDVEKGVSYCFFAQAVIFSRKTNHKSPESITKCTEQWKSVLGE
binder,measurement,setting,value
B1,Kd,pig TF-His,3.31 nM
B2,binding result,[1],no binding (tested: 250 nM)
same,EC50,[2],0.09 nM
same,IC50,[3],0.5 nM
same,IC50 (read off the curve),[4],~0.8 nM
same,% ETP at 10 nM Ab (TGA with 10 min antibody pre-incubation),Relipidated TF [5],28%
same,% ETP at 50 nM Ab (TGA with 10 min antibody pre-incubation),Relipidated TF [5],20%
same,% Peak IIa at 10 nM Ab (TGA with 10 min antibody pre-incubation),Relipidated TF [5],9%
same,% Peak IIa at 50 nM Ab (TGA with 10 min antibody pre-incubation),Relipidated TF [5],7%
same,% Peak IIa at 100 nM Ab (TGA with 10 min antibody pre-incubation),Relipidated TF [5],7%
same,ETP at 10 nM Ab (TGA with 10 min antibody pre-incubation),Relipidated TF [5],482 nM·min
same,ETP at 50 nM Ab (TGA with 10 min antibody pre-incubation),Relipidated TF [5],346 nM·min
same,Lag Time at 10 nM Ab (TGA with 10 min antibody pre-incubation),Relipidated TF [5],20.8 min
same,Lag Time at 50 nM Ab (TGA with 10 min antibody pre-incubation),Relipidated TF [5],28.4 min
same,Lag Time at 100 nM Ab (TGA with 10 min antibody pre-incubation),Relipidated TF [5],28 min
same,Peak IIa at 10 nM Ab (TGA with 10 min antibody pre-incubation),Relipidated TF [5],25 nM
same,Peak IIa at 50 nM Ab (TGA with 10 min antibody pre-incubation),Relipidated TF [5],17 nM
same,Peak IIa at 100 nM Ab (TGA with 10 min antibody pre-incubation),Relipidated TF [5],17 nM
same,ttPeak at 10 nM Ab (TGA with 10 min antibody pre-incubation),Relipidated TF [5],30.7 min
same,ttPeak at 50 nM Ab (TGA with 10 min antibody pre-incubation),Relipidated TF [5],38.9 min
same,ttPeak at 100 nM Ab (TGA with 10 min antibody pre-incubation),Relipidated TF [5],40.2 min
same,Kd,[6],0.57 nM
same,Kd,human TF ECD-His6 [7],0.83 nM
same,EC50,[8],0.34 nM
same,Kd,[9],0.08 nM
same,Kd,human TF ECD-His6 [10],0.09 nM
same,% ETP at 10 nM Ab (TGA without antibody pre-incubation),Relipidated TF [11],55%
same,% Peak IIa at 10 nM Ab (TGA without antibody pre-incubation),Relipidated TF [11],20%
same,% Peak IIa at 50 nM Ab (TGA without antibody pre-incubation),Relipidated TF [11],7%
same,% Peak IIa at 100 nM Ab (TGA without antibody pre-incubation),Relipidated TF [11],6%
same,ETP at 10 nM Ab (TGA without antibody pre-incubation),Relipidated TF [11],1330 nM·min
same,Lag Time at 10 nM Ab (TGA without antibody pre-incubation),Relipidated TF [11],12.1 min
same,Lag Time at 50 nM Ab (TGA without antibody pre-incubation),Relipidated TF [11],30.5 min
same,Lag Time at 100 nM Ab (TGA without antibody pre-incubation),Relipidated TF [11],28.9 min
same,Peak IIa at 10 nM Ab (TGA without antibody pre-incubation),Relipidated TF [11],82 nM
same,Peak IIa at 50 nM Ab (TGA without antibody pre-incubation),Relipidated TF [11],30 nM
same,Peak IIa at 100 nM Ab (TGA without antibody pre-incubation),Relipidated TF [11],26 nM
same,ttPeak at 10 nM Ab (TGA without antibody pre-incubation),Relipidated TF [11],19.6 min
same,ttPeak at 50 nM Ab (TGA without antibody pre-incubation),Relipidated TF [11],40 min
same,ttPeak at 100 nM Ab (TGA without antibody pre-incubation),Relipidated TF [11],40.1 min
same,binding result,[12],no binding
same,IC50,[13],0.49 nM
same,EC50,[14],0.06 nM
same,EC50,[15],0.039 nM
same,MFI at 250 nM,[16],3700
B3,Kd,pig TF-His,12.9 nM
